Where a chain is given by its changes, count along the chain named. Read-outs that look alike come from different tables or passages of the source. One block for each binder: values may come before it.
Assays:
[1] = biological target: T1, human CD3ε on the cell surface (Jurkat cells, Th1 cells) (UniProt P07766 23-207); assay: FACS Jurkat
[2] = biological target: T1, human CD3ε on the cell surface (Jurkat …); assay: FACS Jurkat; remark: listed apart in the source
CD3ε/δ heterodimer = assay: sensorgram
Jurkat [3] = biological target: T2, Jurkat (UniProt P07766 23-207); assay: FACS Jurkat
Jurkat [4] = biological target: T2, Jurkat; assay: FACS Jurkat; remark: listed apart in the source

EC50 [1]: 1.3 nM
EC50 [2]: 1.3 nM
B1: 01F05 C01 (antibody, V domains shown)
VH: QVQLVQSGAEVKKPGASVKVSCKASGYTFTAYYIHWVRQAPGQGLEWMGWINPNSGGTNYAQMFQGRVTMTRDTSISAAYMELSRLSSDDTAVYYCTRGTPRYNWKSYNYGMDVWGQGTTVTVSS
VL: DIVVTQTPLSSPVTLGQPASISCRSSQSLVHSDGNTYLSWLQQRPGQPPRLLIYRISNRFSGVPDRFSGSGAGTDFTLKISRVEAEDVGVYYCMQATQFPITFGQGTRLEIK

EC50 [1]: 0.68 nM
EC50 [2]: 0.68 nM
B2: 08B12 (antibody, V domains shown)
VH: EVQVVESGGGLVKPGGSLRLSCVASGFTFKKYNMNWVRQAPGKGLEWVSSISSSSTYIYYADSVKGRFTISRDNAKNSLNLQMNSLRAEDTAVYYCAGGGYFDYWGQGTLVTVSS

EC50 [1]: 0.59 nM
EC50 [2]: 0.59 nM
B3: 13D02 (antibody, V domains shown)
VH: B2 VH with V4L, V23A, K30S, K31R, Y32F, A40T, S54R, T56S, N77K, N80Y
VL: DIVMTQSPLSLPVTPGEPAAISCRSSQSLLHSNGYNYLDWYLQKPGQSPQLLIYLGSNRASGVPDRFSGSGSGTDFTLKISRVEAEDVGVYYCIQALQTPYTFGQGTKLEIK

EC50 [1]: 23 nM
EC50 [2]: 23 nM
B4: 01B08 B01 (antibody, V domains shown)
VH: QVQLVQSGAEVKKPGASVKVSCKAAGYTFTGYYMHWVRQAPGQGLEWMGWINPYRSGTNFAQKFQDRVTMTRDTSISTAYMELSSLSSDDTAIYYCARGAGTTFYNAFDIWGQGTMVTVSS
VL: DIQMTQSPSAMSASVGDRVTITCRASQGINNYLAWFQQKPGKVPKRLIYAASSLQSGVPSRFSGSGSGTEFTLTISSLQPEDFATYYCLQHNRYPFTFGPGTKVDIK

EC50 [1]: 36 nM
EC50 [2]: 36 nM
B5: 11A10 (antibody, V domains shown)
VH: EVQLVESGRGLVQPGGSLRLSCAASGFTFSSYWMSWVRQAPGKGLEWVANIKEDGSEKYYVDSVKGRFTISRDNAKNSLYLQMNSLRAEDTAVYYCARERREGYFDYWGQGTLVTVSS
VL: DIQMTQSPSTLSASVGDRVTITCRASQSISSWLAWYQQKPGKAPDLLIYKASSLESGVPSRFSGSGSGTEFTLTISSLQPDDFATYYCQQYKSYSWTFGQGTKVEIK

koff (CD3ε/δ heterodimer): 0.00198 s⁻¹
B6: 13E03 (antibody, V domains shown)
VH: B5 VH with V2I, R9G, A40T, Y60H, F68Y, N84S, E89D, L113V, V116A
VL: DIQMTQSPSTLSASVGDRVTITCRASQSIGRWLAWYQQKPGKAPDLLIYKASSLESGVPSRFSGGGSGTEFTLTISSLQPDDFATYYCQQYKSYSWTFGQGTKVEVK

EC50 [1]: 48 nM
EC50 [2]: 48 nM
B7: 11B11 (antibody, V domains shown)
VH: B5 VH with R9G, S35T, L81V, V93I
VL: B6 VL with T10I, V19A, S28R, G30S, R31T, Y36F, D45K, G65S, V106I

EC50 [1]: 27 nM
EC50 [2]: 27 nM
B8: 06G07 A04 (antibody, V domains shown)
VH: B5 VH with R9G, Y32F, Y80F, E102T
VL: B6 VL with P8S, R31S, Y36F, D45K, G65S, T85I, V106I

EC50 [1]: 25 nM
EC50 [2]: 25 nM
B9: 07B09 (antibody, V domains shown)
VH: B5 VH with R9G, S35T, I51M, K52R, E53K, Q82H, R101S, E102T, T115I
VL: DIQMTQSPSTLSASVGDRVTITCRASQRISTWLAWYQQKAGKAPKLLIYKASSLESGVPSRFSGSGSGTEFTLTIRSLEPDDFATYYCQQYISYTWTFGQGTKVEIK

EC50 [1]: 35 nM
EC50 [2]: 35 nM
B10: 13E03 antibody (antibody, V domains shown)
VH: B5 VH with V2I, R9G, A40T, Y60H, F68Y, N84S, E89D, L113V, V116A
VL: B6 VL

EC50 [1]: 20 nM
EC50 [2]: 20 nM
B11: 08G12 (antibody, V domains shown)
VH: B5 VH with R9G, P14S, S31R, Y32F, S35T, A75T
VL: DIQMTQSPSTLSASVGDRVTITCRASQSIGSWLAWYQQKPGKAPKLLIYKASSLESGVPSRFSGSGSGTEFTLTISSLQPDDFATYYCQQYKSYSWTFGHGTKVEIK

koff (CD3ε/δ heterodimer): 0.000334 s⁻¹
B12: 12C08 (antibody, V domains shown)
VH: B5 VH with V2E, R9G, L20F, A23E, A24V, S30R, Y107Q
VL: B6 VL with S14F, R31S, G65S, V106I

EC50 [1]: 34 nM
EC50 [2]: 34 nM
B13: 12C08 antibody (antibody, V domains shown)
VH: B5 VH with V2E, R9G, L20F, A23E, A24V, S30R, Y107Q
VL: B6 VL with S14F, R31S, G65S, V106I

EC50 (Jurkat [3]): 0.55 nM
EC50 (Jurkat [4]): 0.55 nM
B14: OKT3 (antibody, V domains shown)
VH: QVQLVQSGGGVVQPGRSLRLSCKASGYTFTRYTMHWVRQAPGKGLEWIGYINPSRGYTNYNQKFKDRFTISRDNSKNTAFLQMDSLRPEDTGVYFCARYYDDHYCLDYWGQGTPVTVSS
VL: DIQMTQSPSSLSASVGDRVTITCSASSSVSYMNWYQQTPGKAPKRWIYDTSKLASGVPSRFSGSGSGTDYTFTISSLQPEDIATYYCQQWSSNPFTFGQGTKLQITR
